This note sets out measurements from article PMC7230020 (ACS chemical biology, 2020).

Like-named read-outs stand apart in the source and are kept apart here. Numbered stars: 1 amine (or outer) side, 2 acyl side, 3 side chain; on linkers, the order of the positions; unused ones are H or OH. Square brackets hold non-standard residues; d marks the D form. Acd = acridonylalanine, O=C([C@H](Cc1ccc2[nH]c3ccccc3c(=O)c2c1)N[*:1])[*:2]

Holding throughout (experiment): fluorescence polarisation
In general terms: In fluorescence polarisation assays a small probe gives low polarisation when free and higher when bound to something large.

Experiment [1] has as its target T1, activated RecA (RecA*), E. coli RecA polymerised on ssDNA with ATPγS (E. coli, UniProt P0A7G6 1-353).
T1 sequence (looked up): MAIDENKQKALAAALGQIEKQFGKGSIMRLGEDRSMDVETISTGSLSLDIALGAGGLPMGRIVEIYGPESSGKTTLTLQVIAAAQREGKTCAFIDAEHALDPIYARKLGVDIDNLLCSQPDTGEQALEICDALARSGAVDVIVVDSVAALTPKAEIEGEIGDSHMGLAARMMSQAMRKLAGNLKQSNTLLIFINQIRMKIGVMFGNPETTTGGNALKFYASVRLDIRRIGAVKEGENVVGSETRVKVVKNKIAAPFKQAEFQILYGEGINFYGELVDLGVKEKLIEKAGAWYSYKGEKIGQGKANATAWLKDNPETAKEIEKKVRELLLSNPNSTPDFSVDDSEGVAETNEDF

In experiment [2] the target is T1, activated RecA (RecA*), E. coli RecA …. This is another data set of the same source.
Experiment [3] shares this target. The source holds these as a separate data set.

For orientation: Kd means the equilibrium constant for the complex coming apart. The term koff denotes the rate constant with which the complex falls apart. A high value points to fast dissociation. One may read the kon as a measure of how fast the partners come together.

B1: LexA-S119A, unlabeled catalytically inactive full-length LexA(1–202) (natural protein, E. coli, UniProt P0A7C2 1-202, looked up)
chain: MKALTARQQEVFDLIRDHISQTGMPPTRAEIAQRLGFRSPNAAEEHLKALARKGVIEIVSGASRGIRLLQEEEEGLPLVGRVAAGEPLLAQQHIEGHYQVDPSLFKPNADFLLRVSGMAMKDIGIMDGDLLAVHKTQDVRNGQVVVARIDDEVTVKRLKKQGNKVELLPENSEFKPIVVDLRQQSFTIEGLAVGVIRNGDWL
Turning to B1, the binding result in experiment [1] is “binds”.

B2: LexA-S119A-Q161δ, full-length E. coli LexA with acridonylalanine (Acd) at position 161 (natural protein)
chain: MKALTARQQEVFDLIRDHISQTGMPPTRAEIAQRLGFRSPNAAEEHLKALARKGVIEIVSGASRGIRLLQEEEEGLPLVGRVAAGEPLLAQQHIEGHYQVDPSLFKPNADFLLRVSGMAMKDIGIMDGDLLAVHKTQDVRNGQVVVARIDDEVTVKRLKK[Acd]GNKVELLPENSEFKPIVVDLRQQSFTIEGLAVGVIRNGDWL
Regarding B2, in experiment [2], binding was put at a Kd of 790 nM, the koff came out at 0.048 s⁻¹ and the kon was determined as 61000 M⁻¹ s⁻¹. The koff in experiment [3] was 0.093 s⁻¹.
